Assay [1] has as its target plasma proteins of C3-depleted serum. The assay is described as follows: rapid equilibrium dialysis, 10 µM peptide, C3-depleted serum, 37 °C 24 h, UPLC-HDMS. (In general: In equilibrium dialysis free small molecules cross a membrane that holds back macromolecules.)
Assay [2] has the same target. Briefly: rapid equilibrium dialysis, 5 µM peptide, C3-depleted serum, 37 °C 24 h, UPLC-HDMS.
The target in assay [3] is plasma proteins of C3-positive serum (C3-depleted serum with 5 µM purified C3 added). Briefly: rapid equilibrium dialysis, 5 µM peptide, C3-positive serum (5 µM C3), 37 °C 24 h, UPLC-HDMS.
Assay [4] has the same target. The assay is described as follows: rapid equilibrium dialysis, 10 µM peptide, C3-positive serum (5 µM C3), 37 °C 24 h, UPLC-HDMS.

Positions of bridges follow the written chain, without caps; N, C: chain ends. Non-standard residues stand in square brackets, D forms with d. ABM2 = diphenyl-cyclohexanol phosphate ester hexanoic acid tag; Trp(1-Me) = Cn1cc(C[C@H](N)C(=O)O)c2ccccc21; NMeI = CC[C@H](C)[C@H](NC)C(=O)O; Sar = CNCC(=O)O

B1: Cp20 (Ac-Ile-[Cys-Val-Trp(Me)-Gln-Asp-Trp-Sar-Ala-His-Arg-Cys]-mIle-NH2) (peptide)
peptide: Ac-ICV[Trp(1-Me)]QDW[Sar]AHRC[NMeI]-NH2
modifications: disulfide 2-12
SMILES: CC[C@H](C)[C@H](NC(C)=O)C(=O)N[C@H]1CSSC[C@@H](C(=O)N(C)[C@H](C(N)=O)[C@@H](C)CC)NC(=O)[C@H](CCCNC(=N)N)NC(=O)[C@H](Cc2c[nH]cn2)NC(=O)[C@H](C)NC(=O)CN(C)C(=O)[C@H](Cc2c[nH]c3ccccc23)NC(=O)[C@H](CC(=O)O)NC(=O)[C@H](CCC(N)=O)NC(=O)[C@H](Cc2cn(C)c3ccccc23)NC(=O)[C@H](C(C)C)NC1=O
Consider B1, for which the % bound in assay [1] was 3%; in assay [2], 7%; in assay [3], more than 99%; in assay [4], 84%.

B2: ABM2-Cp20 (ABM2-Ile-[Cys-Val-Trp(Me)-Gln-Asp-Trp-Sar-Ala-His-Arg-Cys]-mIle-NH2) (peptide)
peptide: ABM2-ICVWQDW[Sar]AHRC[NMeI]-NH2
modifications: disulfide 2-12; not fully specified (residue 4); printed as ABM2-Ile-[Cys-Val-Trp(Me)-Gln-Asp-Trp-Sar-Ala-His-Arg-Cys]-mIle-NH2
As for B2, the % bound in assay [1], in assay [2], in assay [3] and in assay [4] was more than 99% in each case.

The values are drawn from patent publication US20170173107A1.
